Results taken from article PMC5668318.

Molecular target: 3XFLAG-Kenny LIR motif mutant (F7A/L10A) (Drosophila) (UniProt Q9GYV5)
Experiment: co-IP; anti-FLAG M2-agarose immunoprecipitation from lysates of transfected S2R+ cells, 4 °C overnight, elution with 3XFLAG peptide, blot for GFP

Chain of UniProt Q9GYV5 (Q9GYV5 whole entry F7A/L10A): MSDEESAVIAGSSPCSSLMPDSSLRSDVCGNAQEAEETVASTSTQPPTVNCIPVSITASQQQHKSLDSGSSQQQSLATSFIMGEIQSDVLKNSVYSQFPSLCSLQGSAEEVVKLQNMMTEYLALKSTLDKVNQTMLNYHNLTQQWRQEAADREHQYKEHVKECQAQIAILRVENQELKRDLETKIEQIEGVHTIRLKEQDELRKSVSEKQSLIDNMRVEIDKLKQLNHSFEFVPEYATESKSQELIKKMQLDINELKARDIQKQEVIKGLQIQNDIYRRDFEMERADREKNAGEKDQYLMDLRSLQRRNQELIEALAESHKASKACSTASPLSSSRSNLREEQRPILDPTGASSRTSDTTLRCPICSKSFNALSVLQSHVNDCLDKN

percent decrease in the interaction against wild-type 3XFLAG-Kenny: 62%
Substance: eGFP-Atg8a (from UniProt Q9W2S2 1-121) (natural protein)
